B1: His8-MBP:AtHb1 (Arabidopsis thaliana class 1 non-symbiotic hemoglobin / phytoglobin, before tag cleavage) (natural protein, UniProt O24520 1-160, looked up)
chain: MESEGKIVFTEEQEALVVKSWSVMKKNSAELGLKLFIKIFEIAPTTKKMFSFLRDSPIPAEQNPKLKPHAMSVFVMCCESAVQLRKTGKVTVRETTLKRLGASHSKYGVVDEHFEVAKYALLETIKEAVPEMWSPEMKVAWGQAYDHLVAAIKAEMNLSN
notes: AtHb1, class 1 non-symbiotic hemoglobin of Arabidopsis thaliana; Heme protein; Expressed from pVP16 (Gateway) with an N-terminal 8xHis:MBP double tag and a TEV site; also called His8-MBP-tagged AtHb1; 8xHis:MBP:Hb1; not shown: His8, N-terminal, kept; MBP, N-terminal, kept
B2: AtHb1 (Arabidopsis thaliana class 1 non-symbiotic hemoglobin / phytoglobin, His8-MBP removed) (natural protein, UniProt O24520 1-160, looked up)
chain: B1 chain
notes: AtHb1, class 1 non-symbiotic hemoglobin of Arabidopsis thaliana; Heme protein; The gene primer encodes ENLYFQ directly before the first Met, the adapter primer ENLYFQG before Met; also called class 1 nsHb; source: TEV cleavage, HisTrap removal of the tag, size exclusion and/or anion exchange; not shown: His8, N-terminal, cleaved; MBP, N-terminal, cleaved
B3: His8-MBP:AtHb3 (Arabidopsis thaliana class 3 non-symbiotic, truncated hemoglobin / phytoglobin, before tag cleavage) (natural protein, UniProt Q67XG0 1-175, looked up)
chain: MQSLQDKASVLSGVDQAEAFAIDESNLFDKLGLQTFINLSTNFYTRVYDDEEEWFQSIFSNSNKEDAIQNQYEFFVQRMGGPPLYSQRKGHPALIGRHRPFPVTHQAAERWLEHMQNALDDSVDIDQDSKIKMMKFFRHTAFFLVAGNELKNQNEKPKHKPQCACKHAANKPAEE
notes: AtHb3, class 3 non-symbiotic (truncated, 2-on-2) hemoglobin of Arabidopsis thaliana; Heme protein; Expressed from pVP16 (Gateway) with an N-terminal 8xHis:MBP double tag and a TEV site; carboxy form oxidised to the ferric form on the column; also called His8-MBP-tagged AtHb3; 8xHis:MBP:Hb3; not shown: His8, N-terminal, kept; MBP, N-terminal, kept
B4: AtHb3 (Arabidopsis thaliana class 3 non-symbiotic, truncated hemoglobin / phytoglobin, His8-MBP removed) (natural protein, UniProt Q67XG0 1-175, looked up)
chain: B3 chain
notes: AtHb3, class 3 non-symbiotic (truncated, 2-on-2) hemoglobin of Arabidopsis thaliana; Heme protein; The gene primer encodes ENLYFQ directly before the first Met, the adapter primer ENLYFQG before Met; also called class 3 nsHb; source: TEV cleavage, HisTrap removal of the tag, anion exchange; not shown: His8, N-terminal, cleaved; MBP, N-terminal, cleaved

Biological target: the molecule itself
Test: SEC; analytical size exclusion chromatography of the purified proteins, before and after His8-MBP removal; apparent native size in solution

| Protein | stoichiometry N |
| --- | --- |
| B1 | 2 |
| B2 | 2 |
| B3 | 2 |
| B4 | 2 |
